Experimental data reported in the supplement of paper PMC11246515.
± gives the standard deviation of the averaged measurements.

Test: total protein half-life in vivo (active degradation + dilution); higher = more stable protein
[1] = E. coli NCM3722 delta-clpP delta-lon delta-hslV, growth: N-lim chemostat, doubling time 6 h
[2] = E. coli NCM3722 delta-hslV, growth: N-lim chemostat, doubling time 6 h
[3] = E. coli NCM3722 delta-lon, growth: N-lim chemostat, doubling time 6 h
[4] = E. coli NCM3722 delta-smpB, growth: N-lim chemostat, doubling time 6 h
[5] = wild type E. coli NCM3722, growth: C-lim chemostat, doubling time 3 h
[6] = wild type E. coli NCM3722, growth: C-lim chemostat, doubling time 6 h
[7] = wild type E. coli NCM3722, growth: C-lim chemostat, doubling time 12 h
[8] = wild type E. coli NCM3722, growth: N-lim chemostat, doubling time 6 h
[9] = wild type E. coli NCM3722, growth: N-lim chemostat, doubling time 12 h
[10] = wild type E. coli NCM3722, growth: P-lim chemostat, doubling time 6 h
[11] = wild type E. coli NCM3722, growth: P-lim chemostat, doubling time 12 h
[12] = E. coli NCM3722 delta-clpP, growth: N-lim chemostat, doubling time 6 h

## MVSSFTSAPRSGFYYFAQGWKLVSQPGIRRFVILPLLVNILLMGGAFWWLFTQLDVWIPTLMSYVPDWLQWLSYLLWPLAVISVLLVFGYFFSTIANWIAAPFNGLLAEQLEARLTGATPPDTGIFGIMKDVPRIMKREWQKFAWYLPRAIVLLILYFIPGIGQTVAPVLWFLFSAWMLAIQYCDYPFDNHKVPFKEMRTALRTRKITNMQFGALTSLFTMIPLLNLFIMPVAVCGATAMWVDCYRDKHAMWR [P0A6J3]
[1]
  total protein half-life in vivo: 6.46 h
[2]
  total protein half-life in vivo: 5.84 h
[3]
  total protein half-life in vivo: 6.33 ± 0.76 h
[4]
  total protein half-life in vivo: 6.144 ± 0.028 h
[5]
  total protein half-life in vivo: 3.19 ± 0.53 h
[6]
  total protein half-life in vivo: 5.49 ± 0.6 h
[7]
  total protein half-life in vivo: 12.3 h
[8]
  total protein half-life in vivo: 6.67 h
[9]
  total protein half-life in vivo: 13.7 ± 1.9 h
[10]
  total protein half-life in vivo: 7.18 h
[11]
  total protein half-life in vivo: 13.2 ± 0.26 h

## MAEMKNLKIEVVRYNPEVDTAPHSAFYEVPYDATTSLLDALGYIKDNLAPDLSYRWSCRMAICGSCGMMVNNVPKLACKTFLRDYTDGMKVEALANFPIERDLVVDMTHFIESLEAIKPYIIGNSRTADQGTNIQTPAQMAKYHQFSGCINCGLCYAACPQFGLNPEFIGPAAITLAHRYNEDSRDHGKKERMAQLNSQNGVWSCTFVGYCSEVCPKHVDPAAAIQQGKVESSKDFLIATLKPR [P0AC47]
[12]
  total protein half-life in vivo: 5.78 ± 0.38 h
[2]
  total protein half-life in vivo: 6.96 ± 1 h
[3]
  total protein half-life in vivo: 5.92 ± 0.62 h
[4]
  total protein half-life in vivo: 5.82 ± 0.086 h
[5]
  total protein half-life in vivo: 3.07 ± 0.19 h
[6]
  total protein half-life in vivo: 5.76 ± 0.11 h
[7]
  total protein half-life in vivo: 11 ± 2.1 h
[8]
  total protein half-life in vivo: 6.1 ± 0.5 h
[9]
  total protein half-life in vivo: 12.2 ± 1.8 h
[10]
  total protein half-life in vivo: 5.48 ± 0.44 h
[11]
  total protein half-life in vivo: 13.1 ± 1.2 h

## MAEIGIFVGTMYGNSLLVAEEAEAILTAQGHKATVFEDPELSDWLPYQDKYVLVVTSTTGQGDLPDSIVPLFQGIKDSLGFQPNLRYGVIALGDSSYVNFCNGGKQFDALLQEQSAQRVGEMLLIDASENPEPETESNPWVEQWGTLLS
[1]
  total protein half-life in vivo: 6.12 ± 0.9 h
[12]
  total protein half-life in vivo: 6.03 ± 1.5 h
[2]
  total protein half-life in vivo: 5.34 ± 0.23 h
[3]
  total protein half-life in vivo: 6 ± 0.2 h
[4]
  total protein half-life in vivo: 5.34 ± 0.1 h
[5]
  total protein half-life in vivo: 3.57 ± 0.5 h
[6]
  total protein half-life in vivo: 5.8 ± 0.3 h
[7]
  total protein half-life in vivo: 13.42 ± 0.023 h
[8]
  total protein half-life in vivo: 5.7 ± 0.42 h
[9]
  total protein half-life in vivo: 9.75 ± 0.96 h
[10]
  total protein half-life in vivo: 6.03 ± 0.35 h

## MVKERKTELVEGFRHSVPYINTHRGKTFVIMLGGEAIEHENFSSIVNDIGLLHSLGIRLVVVYGARPQIDANLAAHHHEPLYHKNIRVTDAKTLELVKQAAGTLQLDITARLSMSLNNTPLQGAHINVVSGNFIIAQPLGVDDGVDYCHSGRIRRIDEDAIHRQLDSGAIVLMGPVAVSVTGESFNLTSEEIATQLAIKLKAEKMIGFCSSQGVTNDDGDIVSELFPNEAQARVEAQEEKGDYNSGTVRFLRGAVKACRSGVRRCHLISYQEDGALLQELFSRDGIGTQIVMESAEQIRRATINDIGGILELIRPLEQQGILVRRSREQLEMEIDKFTIIQRDNTTIACAALYPFPEEKIGEMACVAVHPDYRSSSRGEVLLERIAAQAKQSGLSKLFVLTTRSIHWFQERGFTPVDIDLLPESKKQLYNYQRKSKVLMADLG [P0A6C5]
[1]
  total protein half-life in vivo: 4.95 ± 0.5 h
[12]
  total protein half-life in vivo: 3.02 ± 0.23 h
[2]
  total protein half-life in vivo: 2.23 ± 0.15 h
[3]
  total protein half-life in vivo: 3.628 ± 0.028 h
[4]
  total protein half-life in vivo: 1.13 ± 0.066 h
[5]
  total protein half-life in vivo: 1.99 ± 0.036 h
[6]
  total protein half-life in vivo: 3.29 ± 0.41 h
[7]
  total protein half-life in vivo: 5.24 ± 0.21 h
[8]
  total protein half-life in vivo: 2.59 ± 0.25 h
[9]
  total protein half-life in vivo: 4.01 ± 0.54 h
[10]
  total protein half-life in vivo: 4.56 ± 0.38 h
[11]
  total protein half-life in vivo: 8.35 ± 0.32 h

## MQSLTTALENLLRHLSQEIPATPGIRVIDIPFPLKDAFDALSWLASQQTYPQFYWQQRNGDEEAVVLGAITRFTSLDQAQRFLRQHPEHADLRIWGLNAFDPSQGNLLLPRLEWRRCGGKATLRLTLFSESSLQHDAIQAKEFIATLVSIKPLPGLHLTTTREQHWPDKTGWTQLIELATKTIAEGELDKVVLARATDLHFASPVNAAAMMAASRRLNLNCYHFYMAFDGENAFLGSSPERLWRRRDKALRTEALAGTVANNPDDKQAQQLGEWLMADDKNQRENMLVVEDICQRLQADTQTLDVLPPQVLRLRKVQHLRRCIWTSLNKADDVICLHQLQPTAAVAGLPRDLARQFIARHEPFTREWYAGSAGYLSLQQSEFCVSLRSAKISGNVVRLYAGAGIVRGSDPEQEWQEIDNKAAGLRTLLQME
[1]
  total protein half-life in vivo: 4.68 ± 0.47 h
[12]
  total protein half-life in vivo: > 8 h
[2]
  total protein half-life in vivo: 3.92 ± 0.49 h
[3]
  total protein half-life in vivo: 4.47 ± 0.15 h
[4]
  total protein half-life in vivo: 3.94 ± 0.32 h
[5]
  total protein half-life in vivo: 2.96 ± 0.1 h
[6]
  total protein half-life in vivo: 4.82 ± 0.16 h
[7]
  total protein half-life in vivo: 10.2 ± 0.62 h
[8]
  total protein half-life in vivo: 3.92 ± 0.21 h
[9]
  total protein half-life in vivo: 6.68 ± 0.27 h
[10]
  total protein half-life in vivo: 5.06 ± 0.77 h
[11]
  total protein half-life in vivo: 11.1 ± 0.5 h

## MPDSRKARRIADPGLQPERTSLAWFRTMLGYGALMALAIKHNWHQAGMLFWISIGILAIVALILWHYTRNRNLMDVTNSDFSQFHVVRDKFLISLAVLSLAILFAVTHIHQLIVFIERVA [P0ADL6]
[9]
  total protein half-life in vivo: 8.68 h

## MSAGSPKFTVRRIAALSLVSLWLAGCSDTSNPPAPVSSVNGNAPANTNSGMLITPPPKMGTTSTAQQPQIQPVQQPQIQATQQPQIQPVQPVAQQPVQMENGRIVYNRQYGNIPKGSYSGSTYTVKKGDTLFYIAWITGNDFRDLAQRNNIQAPYALNVGQTLQVGNASGTPITGGNAITQADAAEQGVVIKPAQNSTVAVASQPTITYSESSGEQSANKMLPNNKPTATTVTAPVTVPTASTTEPTVSSTSTSTPISTWRWPTEGKVIETFGASEGGNKGIDIAGSKGQAIIATADGRVVYAGNALRGYGNLIIIKHNDDYLSAYAHNDTMLVREQQEVKAGQKIATMGSTGTSSTRLHFEIRYKGKSVNPLRYLPQR [P0ADA3]
[1]
  total protein half-life in vivo: 5.97 ± 0.43 h
[12]
  total protein half-life in vivo: 6.2 ± 0.18 h
[2]
  total protein half-life in vivo: 6.44 ± 0.29 h
[3]
  total protein half-life in vivo: 7.02 ± 0.32 h
[4]
  total protein half-life in vivo: 6.32 ± 0.11 h
[5]
  total protein half-life in vivo: 2.926 ± 0.019 h
[6]
  total protein half-life in vivo: 5.92 ± 0.28 h
[7]
  total protein half-life in vivo: 12.8 ± 3.5 h
[8]
  total protein half-life in vivo: 6.01 ± 0.067 h
[10]
  total protein half-life in vivo: 5.81 ± 0.16 h
[11]
  total protein half-life in vivo: 12 ± 0.81 h

## MITHFRQAIEETLPWLSSFGADPAGGMTRLLYSPEWLETQQQFKKRMAASGLETRFDEVGNLYGRLNGTEYPQEVVLSGSHIDTVVNGGNLDGQFGALAAWLAIDWLKTQYGAPLRTVEVVAMAEEEGSRFPYVFWGSKNIFGLANPDDVRNICDAKGNSFVDAMKACGFTLPNAPLTPRQDIKAFVELHIEQGCVLESNGQSIGVVNAIVGQRRYTVTLNGESNHAGTTPMGYRRDTVYAFSRICHQSVEKAKRMGDPLVLTFGKVEPRPNTVNVVPGKTTFTIDCRHTDAAVLRDFTQQLENDMRAICDEMDIGIDIDLWMDEEPVPMNKELVATLTELCEREKLNYRVMHSGAGHDAQIFAPRVPTCMIFIPSINGISHNPAERTNITDLAEGVKTLALMLYQLAWQK
[4]
  total protein half-life in vivo: 2.26 ± 0.15 h
[5]
  total protein half-life in vivo: 2.76 ± 0.21 h
[6]
  total protein half-life in vivo: 3.86 ± 0.11 h
[7]
  total protein half-life in vivo: 7.08 ± 1.6 h
[9]
  total protein half-life in vivo: 3.88 h
[10]
  total protein half-life in vivo: 3.54 h
[11]
  total protein half-life in vivo: 6.32 h

## MSNQEPATILLIDDHPMLRTGVKQLISMAPDITVVGEASNGEQGIELAESLDPDLILLDLNMPGMNGLETLDKLREKSLSGRIVVFSVSNHEEDVVTALKRGADGYLLKDMEPEDLLKALHQAAAGEMVLSEALTPVLAASLRANRATTERDVNQLTPRERDILKLIAQGLPNKMIARRLDITESTVKVHVKHMLKKMKLKSRVEAAVWVHQERIF [P0AF28]
[1]
  total protein half-life in vivo: 6.09 ± 2.1 h
[12]
  total protein half-life in vivo: 5.77 ± 2.1 h
[2]
  total protein half-life in vivo: 4.05 ± 0.41 h
[3]
  total protein half-life in vivo: 4.81 ± 0.33 h
[4]
  total protein half-life in vivo: 4.166 ± 0.011 h
[5]
  total protein half-life in vivo: 3.06 ± 0.19 h
[6]
  total protein half-life in vivo: 5.03 ± 0.15 h
[7]
  total protein half-life in vivo: 10.1 ± 1.3 h
[8]
  total protein half-life in vivo: 4.19 ± 0.087 h
[9]
  total protein half-life in vivo: 7.26 ± 0.29 h
[10]
  total protein half-life in vivo: 5.39 ± 0.99 h
[11]
  total protein half-life in vivo: 9.74 ± 1.3 h
